Measurements from patent US20150259419A1 (PROTHENA BIOSCIENCES, published 2015).
Numbering of substitutions follows the chain as printed.

B1: h2120_VH1 + h2120_VL3 (antibody, V domains shown)
VH: QVTLKESGPVLVKPTETLTLTCTVSGFSLTSNGVSWVRQPPGKALEWIAAISSGGTTYYNSAFKSRLTISRDTSKSQVVLTMTNMDPVDTATYYCARRYGYGWYFDFWGQGTLVTVSS
VL: DIQMTQSPSSLSASVGDRVTINCKASQNIYNSLAWYQQKPGKAPKVLIFNANSLQTGIPSRFSGSGSGTDFTLTISSLQPEDFATYYCQQFYSGYTFGQGTKLEIK
notes: Humanized V regions cloned into expression vectors containing human CK (VL) or human IgG1 (VH); expressed in 293F cells; also called Standard VH + conservative VL; VH1VL3
B2: h2120_VH1 + h2120_VL1 (antibody, human IgG1, V domains shown)
VH: B1 VH
VL: B1 VL with N22T
notes: also called Standard VH + standard VL
B3: h2120_VH1 + h2120_VL2 (antibody, human IgG1, V domains shown)
VH: B1 VH
VL: B1 VL with N22T, I58V
notes: also called Standard VH + aggressive VL
B4: h2120_VH4 + h2120_VL3 (antibody, human IgG1, V domains shown)
VH: B1 VH with N32Q
VL: B1 VL
notes: also called N-Q deamidate VH + conservative VL
B5: h2120_VH5 + h2120_VL3 (antibody, V domains shown)
VH: B1 VH with G33A
VL: B1 VL
notes: also called h2120VH5VL3; VH5VL3
B6: h2120_VH2 + h2120_VL3 (antibody, human IgG1, V domains shown)
VH: B1 VH with T68S
VL: B1 VL
notes: also called Conservative VH + conservative VL
B7: h2120_VH3 + h2120_VL3 (antibody, human IgG1, V domains shown)
VH: B1 VH with N32S
VL: B1 VL
notes: also called N-S deamidate VH + conservative VL
B8: rat anti-human MCAM monoclonal antibody clone 2107.4.10 (antibody, V domains shown)
VH: QVQLKESGPGLVQSSQTLSLTCTVSGFSLTSNGVSWVRQPPGKGLEWIAAISSGGSTYYNSAFKSRLSISRNTSKSQVLLKMNSLQTEDTGMYFCARHRPFYFDYWGQGVMVTVSS
VL: DIQVTQSPSLLSASVGDRVTLNCKGSQNIYKSLAWFRLKRGEAPKLLIYDANSLQTGIPSRFSGSGSGTDFTLTITSLQPEDVATYFCQQYYSGYTFGAGTKLELK
B9: rat anti-human MCAM monoclonal antibody clone 2120.4.19 (antibody, V domains shown)
VH: QVQLKESGPGLVQPSQTLSLTCTVSGFSLTSNGVSWVRQPPGKGLEWIAAISSGGTTYYNSAFKSRLSISRNTSKSQVLLKMNSLQTEDTAMYFCARRYGYGWYFDFWGPGTMVTVSS
VL: B1 VL with Q3R, S10L, I21L, P40L, K42E, A43G, F49P, Y87F, Q99A, I105L
notes: also called m2120

Target: T1, human MCAM, full length, expressed on transfected cells (human, UniProt P43121 24-646)
T1 construct: CHO cells transfected with the full length human MCAM gene; also called hMCAM; CD146
T1 chain: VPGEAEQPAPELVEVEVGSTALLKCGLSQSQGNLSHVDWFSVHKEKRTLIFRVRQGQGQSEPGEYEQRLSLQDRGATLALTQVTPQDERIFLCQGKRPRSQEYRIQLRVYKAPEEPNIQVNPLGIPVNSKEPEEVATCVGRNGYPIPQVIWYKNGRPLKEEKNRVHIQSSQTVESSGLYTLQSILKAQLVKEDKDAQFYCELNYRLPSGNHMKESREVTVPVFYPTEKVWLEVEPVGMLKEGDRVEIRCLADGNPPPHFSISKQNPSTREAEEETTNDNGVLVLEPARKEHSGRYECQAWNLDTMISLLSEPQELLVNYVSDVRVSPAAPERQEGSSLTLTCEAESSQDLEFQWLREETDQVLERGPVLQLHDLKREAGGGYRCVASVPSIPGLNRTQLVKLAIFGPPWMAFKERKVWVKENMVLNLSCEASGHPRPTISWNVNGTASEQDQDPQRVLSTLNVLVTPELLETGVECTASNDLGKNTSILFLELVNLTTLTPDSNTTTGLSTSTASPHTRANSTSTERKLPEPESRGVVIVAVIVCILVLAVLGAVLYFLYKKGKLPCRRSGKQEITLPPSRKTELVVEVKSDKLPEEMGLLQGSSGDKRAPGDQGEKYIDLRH
Assay: laminin/FACS assay: blocking of laminin 411 binding to hMCAM expressing CHO cells; relative to rodent 2120
Description: Following incubation for 30-45 minutes, the cells were washed and anti-laminin conjugated to AF650 (NovusBio) was added to detect the bound laminin. The cells were run on a flow cytometer to measure the laminin binding signal.

Row | Binder | Fold over rodent (Blocking, Expt#1) [fold] | Fold over rodent (Blocking, Expt#2) [fold]
1 | B1 | 1.7 | 2.8
2 | B2 | 2 | 3.5
3 | B3 | 4.6 | 12.6
4 | B4 | 3.8 | 5.6
5 | B5 | 1.2 | 1.5

Target: T2, recombinant hMCAM-His (human, UniProt P43121 24-559)
T2 construct: not shown: His tag
T2 chain: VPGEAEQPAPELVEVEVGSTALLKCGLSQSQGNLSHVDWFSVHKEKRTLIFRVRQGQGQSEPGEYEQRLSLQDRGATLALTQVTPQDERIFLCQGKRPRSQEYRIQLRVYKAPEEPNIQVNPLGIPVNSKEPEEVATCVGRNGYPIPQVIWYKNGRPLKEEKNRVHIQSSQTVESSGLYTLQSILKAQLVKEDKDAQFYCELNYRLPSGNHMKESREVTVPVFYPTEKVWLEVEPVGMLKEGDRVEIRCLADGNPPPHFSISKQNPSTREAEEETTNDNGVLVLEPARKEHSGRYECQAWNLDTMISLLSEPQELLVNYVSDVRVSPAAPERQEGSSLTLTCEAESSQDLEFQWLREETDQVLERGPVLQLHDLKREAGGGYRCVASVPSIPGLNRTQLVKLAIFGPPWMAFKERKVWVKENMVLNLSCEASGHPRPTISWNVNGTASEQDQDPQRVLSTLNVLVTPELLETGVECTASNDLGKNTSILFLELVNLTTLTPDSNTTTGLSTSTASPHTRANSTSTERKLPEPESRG
Assay: ForteBio Octet Red, antibody on anti-human Fc sensors, hMCAMHis analyte, 1:1 fit; relative to rodent 2120
Description: The affinities were measured using the ForteBio Octet Red. Anti-human Fc sensors were used to capture the humanized antibodies, and several concentrations of hMCAMHis analyte were used to determine the affinity using a 1:1 fitting model.

Row | Binder | Fold over rodent (Forte affinity) [fold] | Fold over rodent (Forte affinity, Expt. #1) [fold] | Fold over rodent (Forte affinity, Expt. #2) [fold] | Fold over rodent (Forte affinity, second column) [fold]
6 | B1 | 5.9 | 5.64 | 6.21 | 5.8
7 | B2 | 8.8 |  |  | 
8 | B3 | 10.8 |  |  | 
9 | B6 |  | 6.57 | 6.43 | 
10 | B7 |  | 16.1 |  | 
11 | B4 | 17.4 |  |  | 
12 | B5 | 1.1 |  |  | 1.2

Target: T2, recombinant hMCAM-His
Assay: competitive ELISA on hMCAM-His against biotinylated rodent or chimeric 2120; relative to rodent 2120
Description: ELISA plates were coated with recombinant hMCAM-His, and blocked with casein buffer to prevent non-specific binding. Biotinylated rodent or chimeric antibody was added at a subsaturating concentration, in the presence or absence of 3× increasing concentrations of unlabeled competitor (humanized antibody, rodent, or chimeric). After washing to remove unbound antibody, streptavidin HRP was added to allow detection of the biotinylated antibody. The ELISA was developed with TMB substrate and the OD450 was measured. The IC50 of the unlabeled competitor was determined using the GraphPad Prism5 software.

Row | Binder | Fold over rodent (competitive ELISA IC50) [fold] | Fold over rodent (competitive ELISA IC50, Expt. #1) [fold] | Fold over rodent (competitive ELISA IC50, Expt. #2) [fold]
13 | B1 | 1.8 | 2.23 | 2.42
14 | B2 | 3.1 |  | 
15 | B3 | 3.1 |  | 
16 | B6 |  | 1.93 | 2.62
17 | B7 |  | 3.47 | 
18 | B4 | 5 |  | 
19 | B5 | 2.4 |  | 

Target: T3, human MCAM domain 1 (MCAMhFc domain construct) (human, UniProt P43121 19-129)
T3 construct: also called amino acids 19-129; not shown: human Fc portion (captured on anti-human IgG Fc biosensors)
T3 sequence: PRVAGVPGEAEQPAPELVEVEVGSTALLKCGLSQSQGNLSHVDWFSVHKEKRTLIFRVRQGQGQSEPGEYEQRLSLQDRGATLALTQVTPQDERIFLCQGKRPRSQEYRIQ
Assay: ForteBio Octet Red, MCAMhFc domains on anti-human IgG Fc biosensors
Text: The following protocol was used: ForteBio anti-human IgG Fc biosensors were used to immobilize various MCAMhFc domains including full length MCAMhFc protein on to biosensor surface. […] After loading these samples into a black 96 well plate, the Octet Red was programmed as follows: 60 seconds for baseline #1; 180 seconds for loading various domains; 60 seconds for baseline #2; 180 seconds for association of antibody to domain; and 240 seconds for dissociation of antibody from domain.
1. MCAMhFc final concentration@5 ug/ml [0374] […] 3. ForteBio anti-human IgG Fc Capture (AHC) biosensors for kinetics experiments, cat #18-5060 [0376] 4. Block 96 well plate from Greiner Bio-one, cat #655209 [0377] 5. ForteBio Octet Red machine [0378] 6. Fresh tissue culture medium, DMEM with 20% FCS, was used as buffer for dilution

Row | Binder | binding result
20 | B8 | no binding (tested: 5 ug/ml)
21 | B9 | no binding (tested: 5 ug/ml)

Target: T1, human MCAM, full length, expressed on …
Assay: blocking of laminin 411 (20 ug/ml) binding to CHO cells expressing human MCAM, flow cytometry
Description: The 87 independent mouse fusion clones and 26 independent rat fusion clones described in Example 1 above as being capable of (i) binding to human MCAM, and (ii) blocking the interaction between human MCAM and the α-4 chain of laminin were further characterized as follows. First, IC50 quantitation for the ability of the monoclonal antibody to block the binding of human MCAM to the α-4 chain of laminin was determined as follows. CHO cells expressing human MCAM were incubated with an anti-human MCAM antibody (at various concentrations) for 30 minutes at 4 degrees Celsius. […] Unbound laminin was then washed away, and the laminin bound to the surface of the cells was detected with fluorescently labeled anti-laminin antibodies. After washing, the amount of laminin bound to the surface was detected by flow cytometry, and IC50s were calculated based on the mean fluorescent intensity.
Amino acid and nucleic acid sequences of the heavy and light chains of these antibodies, and their hypervariable regions, are provided in SEQ ID NOs:29-92. […] As such, each of these specific monoclonal antibodies was very capable of binding to human MCAM and inhibiting the interaction of cell-expressed human MCAM with its α-4 laminin binding ligand.

Row | Binder | IC50 [µg/mL]
22 | B8 | 0.29
